Test results: patent US20240082816A1
pKd: −log10 of the molar value. One block for each substance: values may come before it.

How the values were obtained:
[1] = target: therapeutic human IgG1 (human); assay: ITC, 15 °C, PBS pH 7.4, reported per IgG1
[2] = target: therapeutic human IgG1 (human); assay: ITC, 15 °C, PBS pH 7.4, reported per ligand
IgG [3] = assay: affinity precipitation: C12-VVEE to binding molecule 50:1, binding molecule to IgG 10:1, 1 M ammonium sulfate
IgG [4] = assay: affinity precipitation: C12-VVEE to binding molecule 50:1, binding molecule to IgG 10:2, 1 M ammonium sulfate
IgG [5] = assay: affinity precipitation: co-assembled with C12-VVEE at 10:1, binding molecule to IgG 10:1, 1 M ammonium sulfate, IgG in the supernatant by ProA column
[6] = target: therapeutic human IgG1 (human); assay: affinity precipitation: 5 mM C12-Z33 with 20 µM IgG1, 0.6 M Na2SO4, absorbance of the supernate at 280 nm

-TΔS° [1]: 43.4 kcal/mol
ΔG° [1]: -10 kcal/mol
ΔH° [1]: -53.4 kcal/mol
-TΔS° [2]: 13.6 kcal/mol
pKd [2]: 7.22
ΔG° [2]: -9.5 kcal/mol
ΔH° [2]: -23.1 kcal/mol
Substance: Z33 peptide

IgG precipitation yield (IgG [3]): 99%
IgG precipitation yield (IgG [4]): 75%
IgG precipitated out from the solution (IgG [5]): 30%
Substance: C12-VVKKGG-Z33 binding molecule (peptide)

IgG1 removed from the supernate [6]: > 60%
Substance: C12-Z33 immuno-amphiphile (self-assembled immunofibers) (peptide)
